From US20040110711A1 come the findings set out here.

This assay concerns the target mouse full-length TrkB (TrkB.FL) (mouse). Put plainly: cell-based or functional assay.

Substance “BDNF (brain derived neurotrophic factor), supplied by Regeneron Pharmaceuticals (from UniProt P23560 129-247) (ligand)” returned a TrkB phosphorylation in Ts16 neurons against euploid neurons of 33 % less and a neuron survival 36 hours after B27 withdrawal of 65%.
